Assay results published in US20120135923A1, “Use of Melanocortins to Treat Dyslipidemia” (IPSEN PHARMA, S.A.S., priority 2009, published 2012).
Bridge positions count the residues as written; N and C are the ends. Square brackets hold non-standard residues; d marks the D form. Ends that are not written are not given here. Orn = NCCC[C@H](N)C(=O)O; Dab = NCC[C@H](N)C(=O)O; Dap = NC[C@H](N)C(=O)O

Columns and labels:
hMC5-R (human), P33032 = assay: competition with [125I]-NDP-α-MSH, CHO-K1 membranes
hMC5-R (human), P33032, sequence (P33032 whole entry): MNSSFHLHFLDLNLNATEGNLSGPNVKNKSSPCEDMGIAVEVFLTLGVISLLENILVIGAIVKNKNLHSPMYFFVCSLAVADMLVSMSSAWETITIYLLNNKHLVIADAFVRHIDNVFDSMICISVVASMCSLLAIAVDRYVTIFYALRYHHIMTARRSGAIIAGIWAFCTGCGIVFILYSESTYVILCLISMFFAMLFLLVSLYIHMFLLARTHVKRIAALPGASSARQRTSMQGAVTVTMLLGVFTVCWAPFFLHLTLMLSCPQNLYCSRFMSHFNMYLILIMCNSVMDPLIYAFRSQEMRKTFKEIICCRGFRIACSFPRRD

hMC1-R (human) = hMC1-R (human) (UniProt Q01726); assay: cell-based or functional assay
hMC1-R (human), sequence (Q01726 whole entry): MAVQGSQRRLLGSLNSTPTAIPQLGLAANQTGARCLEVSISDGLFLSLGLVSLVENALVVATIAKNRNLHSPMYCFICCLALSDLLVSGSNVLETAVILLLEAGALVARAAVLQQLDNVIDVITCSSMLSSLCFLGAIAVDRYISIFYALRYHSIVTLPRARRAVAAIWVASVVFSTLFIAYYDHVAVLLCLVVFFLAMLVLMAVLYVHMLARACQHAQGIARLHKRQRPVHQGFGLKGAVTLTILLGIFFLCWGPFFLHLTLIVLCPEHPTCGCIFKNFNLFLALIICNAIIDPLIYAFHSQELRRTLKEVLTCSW

hMC4-R (human) = hMC4-R (human) (UniProt P32245); assay: cell-based or functional assay
hMC4-R (human), sequence (P32245 whole entry): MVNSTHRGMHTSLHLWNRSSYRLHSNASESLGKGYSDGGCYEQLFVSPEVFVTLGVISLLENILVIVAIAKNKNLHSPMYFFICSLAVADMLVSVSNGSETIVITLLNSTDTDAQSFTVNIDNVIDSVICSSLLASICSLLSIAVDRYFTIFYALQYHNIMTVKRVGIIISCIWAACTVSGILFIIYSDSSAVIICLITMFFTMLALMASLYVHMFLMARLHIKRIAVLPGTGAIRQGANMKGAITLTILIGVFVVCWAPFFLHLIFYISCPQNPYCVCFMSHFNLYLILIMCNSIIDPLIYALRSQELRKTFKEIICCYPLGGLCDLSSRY

hMC3-R (human) = hMC3-R (human) (UniProt P41968); assay: cell-based or functional assay
hMC3-R (human), sequence (P41968 whole entry): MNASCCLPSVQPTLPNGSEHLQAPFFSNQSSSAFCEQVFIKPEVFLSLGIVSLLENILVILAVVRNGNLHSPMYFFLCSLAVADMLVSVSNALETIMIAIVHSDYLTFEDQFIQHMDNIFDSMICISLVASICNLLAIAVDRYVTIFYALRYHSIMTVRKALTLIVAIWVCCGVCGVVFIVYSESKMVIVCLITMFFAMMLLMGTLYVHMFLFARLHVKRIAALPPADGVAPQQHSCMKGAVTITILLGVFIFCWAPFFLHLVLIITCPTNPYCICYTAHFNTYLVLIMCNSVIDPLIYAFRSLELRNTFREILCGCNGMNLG

hMC5-R (human) = hMC5-R (human) (UniProt P33032); assay: cell-based or functional assay
hMC5-R (human), sequence (P33032 whole entry): as the sequence (P33032 whole entry) above

[1] = biological target: human melanocortin receptor subtype 1 (hMC1-R) (human) (UniProt Q01726); assay: [125I]-NDP-α-MSH competition, membranes
human melanocortin receptor subtype 1 (hMC1-R) (human), sequence (Q01726 whole entry): as the sequence (Q01726 whole entry) above

[2] = biological target: human melanocortin receptor subtype 3 (hMC3-R) (human) (UniProt P41968); assay: [125I]-NDP-α-MSH competition, membranes
human melanocortin receptor subtype 3 (hMC3-R) (human), sequence (P41968 whole entry): as the sequence (P41968 whole entry) above

[3] = biological target: human melanocortin receptor subtype 4 (hMC4-R) (human) (UniProt P32245); assay: [125I]-NDP-α-MSH competition, membranes
human melanocortin receptor subtype 4 (hMC4-R) (human), sequence (P32245 whole entry): as the sequence (P32245 whole entry) above

[4] = biological target: human melanocortin receptor subtype 5 (hMC5-R) (human) (UniProt P33032); assay: [125I]-NDP-α-MSH competition, membranes
human melanocortin receptor subtype 5 (hMC5-R) (human), sequence (P33032 whole entry): as the sequence (P33032 whole entry) above

[5] = biological target: human melanocortin receptor subtype 3 (hMC3-R) (human), P41968; assay: [125I]-NDP-α-MSH competition, membranes
human melanocortin receptor subtype 3 (hMC3-R) (human), P41968, sequence (P41968 whole entry): as the sequence (P41968 whole entry) above

[6] = biological target: human melanocortin receptor subtype 5 (hMC5-R) (human), P33032; assay: [125I]-NDP-α-MSH competition, membranes
human melanocortin receptor subtype 5 (hMC5-R) (human), P33032, sequence (P33032 whole entry): as the sequence (P33032 whole entry) above

[7] = biological target: human melanocortin receptor subtype 1 (hMC1-R) (human), Q01726; assay: [125I]-NDP-α-MSH competition, membranes
human melanocortin receptor subtype 1 (hMC1-R) (human), Q01726, sequence (Q01726 whole entry): as the sequence (Q01726 whole entry) above

[8] = biological target: human melanocortin receptor subtype 4 (hMC4-R) (human), P32245; assay: [125I]-NDP-α-MSH competition, membranes
human melanocortin receptor subtype 4 (hMC4-R) (human), P32245, sequence (P32245 whole entry): as the sequence (P32245 whole entry) above

Binder | Ki [1] [nM] | Ki [2] [nM] | Ki [3] [nM] | Ki [5] [nM] | Ki [6] [nM] | Ki [7] [nM] | Ki [8] [nM] | other results
Ac-RC[dA]H[dF]RWC-NH2 (disulfide 2-8) [Ac-Arg-c(Cys-D-Ala-His-D-Phe-Arg-Trp-Cys)-NH2] |  |  |  |  |  |  |  | Ki (hMC5-R (human), P33032): 430 nM
D[dA]H[dF]RW[Orn]-NH2 (lactam 1-7; also: hydantoin ring from C(O) with Asp1-D-Ala2) [c[Hydantoin(C(O)-(Asp-D-Ala))-His-D-Phe-Arg-Trp-Orn]-NH2] | 37.7 | 576 | 7.81 |  |  |  |  | cAMP EC50 (hMC1-R (human)): 56.6 nM; cAMP EC50 (hMC4-R (human)): 4.5 nM; cAMP EC50 (hMC3-R (human)): 88.6 nM; cAMP EC50 (hMC5-R (human)): 9300 nM; Ki [4]: 6400 nM
E[dA]H[dF]RW[Dap]-NH2 (lactam 1-7 (inferred); also: hydantoin ring from C(O) with Glu1-D-Ala2) [c[Hydantoin(C(O)-(Glu-D-Ala))-His-D-Phe-Arg-Trp-Dap]-NH2] | 16.4 | 863 | 4.97 |  |  |  |  | cAMP EC50 (hMC1-R (human)): 56.7 nM; cAMP EC50 (hMC4-R (human)): 0.182 nM; cAMP EC50 (hMC3-R (human)): 18.2 nM; cAMP EC50 (hMC5-R (human)): > 10000 nM
RGC[dA]H[dF]RWC-NH2 (disulfide 3-9; also: hydantoin ring: C(O) bridging Arg-Gly) [Hydantoin(C(O)-(Arg-Gly))-c(Cys-D-Ala-His-D-Phe-Arg-Trp-Cys)-NH2] |  |  |  | 41.3 | 650 | 2.65 | 4.17 | 
E[dA]H[dF]RW[Dab]-NH2 (lactam 1-7; also: hydantoin ring from C(O) with Glu1-D-Ala2) [c[Hydantoin(C(O)-(Glu-D-Ala))-His-D-Phe-Arg-Trp-Dab]-NH2] | 28 | 90.5 | 12.7 |  |  |  |  | Ki [4]: 877 nM
E[dA]H[dF]RWK-NH2 (lactam 1-7 (inferred); also: hydantoin ring from C(O) with Glu1-D-Ala2) [c[Hydantoin(C(O)-(Glu-D-Ala))-His-D-Phe-Arg-Trp-Lys]-NH2] | 72.6 | 1920 | 45.2 |  |  |  |  | 
Ac-FRC[dA]H[dF]RWC-NH2 (disulfide 3-9; SMILES CC(=O)N[C@@H](Cc1ccccc1)C(=O)N[C@@H](CCCNC(=N)N)C(=O)N[C@H]1CSSC[C@@H](C(N)=O)NC(=O)[C@H](Cc2c[nH]c3ccccc23)NC(=O)[C@H](CCCNC(=N)N)NC(=O)[C@@H](Cc2ccccc2)NC(=O)[C@H](Cc2c[nH]cn2)NC(=O)[C@@H](C)NC1=O) [Ac-Phe-Arg-c(Cys-D-Ala-His-D-Phe-Arg-Trp-Cys)-NH2] |  |  |  | 14.8 | 491 | 1.48 | 2.34 | 
D[dA]H[dF]RW[Dap]-NH2 (lactam 1-7; also: hydantoin ring from C(O) with Asp1-D-Ala2) [c[Hydantoin(C(O)-(Asp-D-Ala))-His-D-Phe-Arg-Trp-Dap]-NH2] | 66.6 | 1820 | 19.9 |  |  |  |  | cAMP EC50 (hMC4-R (human)): 2.12 nM; cAMP EC50 (hMC3-R (human)): 49.3 nM
Ac-WRC[dA]H[dF]RWC-NH2 (disulfide 3-9; SMILES CC(=O)N[C@@H](Cc1c[nH]c2ccccc12)C(=O)N[C@@H](CCCNC(=N)N)C(=O)N[C@H]1CSSC[C@@H](C(N)=O)NC(=O)[C@H](Cc2c[nH]c3ccccc23)NC(=O)[C@H](CCCNC(=N)N)NC(=O)[C@@H](Cc2ccccc2)NC(=O)[C@H](Cc2c[nH]cn2)NC(=O)[C@@H](C)NC1=O) [Ac-Trp-Arg-c(Cys-D-Ala-His-D-Phe-Arg-Trp-Cys)-NH2] |  |  |  | 42 | 1470 | 4.7 | 2.25 | 

The next lines start with results.

Ki [1] [nM] | Ki [2] [nM] | Ki [3] [nM] | Ki [5] [nM] | Ki [6] [nM] | Ki [7] [nM] | Ki [8] [nM] | Binder | other results
 |  |  | 331 | 44.6 | 19.3 | 26.7 | LGC[dA]H[dF]RWC-NH2 (disulfide 3-9; also: hydantoin ring from C(O) with Leu1-Gly2) [Hydantoin(C(O)-(Leu-Gly))-c(Cys-D-Ala-His-D-Phe-Arg-Trp-Cys)-NH2] | 
 |  |  | 160 | 33.4 | 15.3 | 8.66 | VGC[dA]H[dF]RWC-NH2 (disulfide 3-9; also: hydantoin ring from C(O) with Val1-Gly2) [Hydantoin(C(O)-(Val-Gly))-c(Cys-D-Ala-His-D-Phe-Arg-Trp-Cys)-NH2] | 
 |  |  | 194 | 28.9 | 11.6 | 11.5 | IGC[dA]H[dF]RWC-NH2 (disulfide 3-9; also: hydantoin ring from C(O) with Ile1-Gly2) [Hydantoin(C(O)-(Ile-Gly))-c(Cys-D-Ala-His-D-Phe-Arg-Trp-Cys)-NH2] | 
 |  |  | 1.7 | 783 | 1.14 | 4.53 | GRC[dA]H[dF]RWC-NH2 (disulfide 3-9; also: hydantoin ring from C(O) with Gly1-Arg2) [Hydantoin(C(O)-(Gly-Arg))-c(Cys-D-Ala-His-D-Phe-Arg-Trp-Cys)-NH2] | 
3.51 | 29.2 | 6.04 |  |  |  |  | G[dR]C[dA]H[dF]RWC-NH2 (bridge N-2 via C(O) hydantoin; disulfide 3-9; not fully specified) [Hydantoin(C(O)-(Gly-D-Arg))-c(Cys-D-Ala-His-D-Phe-Arg-Trp-Cys)-NH2] | Ki [4]: 914 nM
60.4 | 2840 | 52.4 |  |  |  |  | E[dA]H[dF]RW[Orn]-NH2 (lactam 1-7 (inferred); also: hydantoin ring from C(O) with Glu1-D-Ala2) [c[Hydantoin(C(O)-(Glu-D-Ala))-His-D-Phe-Arg-Trp-Orn]-NH2] | cAMP EC50 (hMC4-R (human)): 4.94 nM; cAMP EC50 (hMC3-R (human)): 39.2 nM
